Substrate in this series: O=P(O)(O)O[C@H]1O[C@H](CO)[C@@H](O)[C@H](O)[C@H]1O
Description: purified protein, by the assay type. Particulars: other: E. grandis UGP; SEM 0.002.

B1: Eucalyptus grandis UGP (UDP-glucose pyrophosphorylase), SEQ ID NO: 79 (DNA; protein SEQ ID NO: 103) (Eucalyptus grandis) (protein)
chain: VLFTHLPPQKPNRISLLLFFIFHITTFLLLLLLLSVLSTFISIAVSLSDPELFFASPPMAAAATLSAPDAAKLSQLKSAVSGLGQISESEKNGFINLVSRYLSGEAQHVDWSKIQTPTDEIVVPYDSLAPTPQDPAATKSLLDKLVVLKLNGGLGTTMGCTGPKSVIEVRNGLTFLDLIVIQIENLNTKYGCNVPLLLMNSFNTHDDTLKIVEKYANSNIDIHTFNQSQYPRLVVEDFMPLPCKGQTGKDGWYPPGHGDVFASLMNSGKLDALLSQGKEYVFAANSDNLGAIVDLKILNHLMTNKNEYCMEVTPKTLADVKGGTLISYEGKVQLLEIAQVPDEHINEFKSIEKFKIFNTNNLWVNLKAIKRLVEAQALKMEIIPNPKEVDGIKVLQLETAAGAAIKFFDNAIGINVPRSRFLPVKATSDLLLVQSDLYTLVDGFVERNKARTNPSNPSIELGPEFKKVGNFLSRFKSIPSIIELDSLKVSGDVWFGTGITLKGKVTIAAKPGVKLEIPDGVVLENKEIHGPEDL
Turning to B1, the Km (as a rule, the substrate concentration at which the rate is half of its maximum) stood at 126 µM.
